According to patent publication US12358954B2, “Capsid-modified rAAV vector compositions and methods therefor” (priority 2012, dated 2025):

System: K562 cells
Assay: AAV6 transduction of K562 cells after enzyme / inhibitor treatment
Type: cell-based, human
Description: More recently, Denard et al. reported that galectin-3-binding protein in human sera agglutinates AAV6 vectors, which results in decreased transduction efficiency of these vectors. […] The identity of the putative receptor for AAV6 vectors in human CD34^+ cells remains elusive, and additional studies are warranted. […] The implication is that AAV6 uses a protein rather than a lipid on K562 cells for binding and entry into these cells. In addition, because AAV6 is known to have evolved from recombination between AAV1 and AAV2, and because AAV2 uses heparan sulfateproteoglycan (HSPG) as the primary cellular receptor, the level of HSPG expression on K562 cells surface was examined by FACS. […] The effect of inhibitors of O-linked and N-linked glycosylation was also evaluated on the transduction efficiency of AAV6 vectors in K562 cells.

B1: Proteinase K: Proteinase K (Sigma-Aldrich Co.) (protein, UniProt P06873 106-384, looked up)
Proteinase K: AAQTNAPWGLARISSTSPGTSTYYYDESAGQGSCVYVIDTGIEASHPEFEGRAQMVKTYYYSSRDGNGHGTHCAGTVGSRTYGVAKKTQLFGVKVLDDNGSGQYSTIIAGMDFVASDKNNRNCPKGVVASLSLGGGYSSSVNSAAARLQSSGVMVAVAAGNNNADARNYSPASEPSVCTVGASDRYDRRSSFSNYGSVLDIFGPGTSILSTWIGGSTRSISGTSMATPHVAGLAAYLMTLGKTTAASACRYIADTANKGDLSNIPFGTVNLLAYNNYQA
effect on AAV6 vector-mediated transduction of K562 cells: dramatically decrease
